According to patent US20210032313A1 (Daiichi Sankyo, published 2021):
Changes are numbered by the printed parent chain. Values belong to the binder of their own block, whether it stands above or below them.

Columns and labels:
[1] = biological target: T1, human KLK5 (human, UniProt Q9Y337 67-293); assay: cell-based or functional assay
T1 sequence: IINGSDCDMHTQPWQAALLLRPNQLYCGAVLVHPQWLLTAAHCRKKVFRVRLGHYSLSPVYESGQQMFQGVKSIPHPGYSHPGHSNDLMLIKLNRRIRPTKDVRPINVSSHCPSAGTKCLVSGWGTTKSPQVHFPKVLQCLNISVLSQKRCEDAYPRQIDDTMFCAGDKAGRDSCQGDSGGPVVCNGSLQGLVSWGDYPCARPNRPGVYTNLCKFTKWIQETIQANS

[2] = biological target: T2, human KLK14 (human, UniProt Q9P0G3 25-251); assay: cell-based or functional assay
T2 sequence: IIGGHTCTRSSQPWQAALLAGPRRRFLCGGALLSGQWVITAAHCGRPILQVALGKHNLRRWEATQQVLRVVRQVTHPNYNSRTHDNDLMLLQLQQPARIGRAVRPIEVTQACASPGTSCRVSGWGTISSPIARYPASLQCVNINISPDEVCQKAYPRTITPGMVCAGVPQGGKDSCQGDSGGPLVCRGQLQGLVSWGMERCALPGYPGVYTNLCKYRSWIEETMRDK

[3] = biological target: T3, KLK8 (human, UniProt O60259); assay: fluorogenic peptide substrate cleavage, 1 µM inhibitor
T3 construct: prepared by the inventors; 5 nM in the assay; substrate Boc-Val-Pro-Arg-AMC 100 µM; also called Human KLK8; hKLK8
T3 sequence (protease, looked up): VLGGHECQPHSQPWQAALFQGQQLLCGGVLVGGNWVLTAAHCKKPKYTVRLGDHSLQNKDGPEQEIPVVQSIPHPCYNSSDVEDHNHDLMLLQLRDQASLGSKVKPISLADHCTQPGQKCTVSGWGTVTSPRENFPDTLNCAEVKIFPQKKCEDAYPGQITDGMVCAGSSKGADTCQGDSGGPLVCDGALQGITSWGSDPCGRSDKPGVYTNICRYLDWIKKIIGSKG
Experimental: FIG. 3G includes graphs to evaluate the cross-reactivity of each inhibitory peptide with proteases, using the degradation of a peptide substrate as an index. For evaluating the Human KLK7 inhibitory activity, hKLK7 with a final concentration of 1 μg/mL and a substrate peptide Mca-Arg-Pro-Lys-Pro-Val-Glu-Nval-Trp-Arg-Lys (Dnp)-NH₂ (R&D Systems, Inc., ES002) with a final concentration of 20 μM were used. For evaluating the Human KLK8 inhibitory activity, hKLK8 (UniProt: 060259, prepared by the inventors) with a final concentration of 5 nM and a substrate peptide Boc-Val-Pro-Arg-AMC (R&D Systems, Inc., ES011) with a final concentration of 100 μM were used. For evaluating the Human KLK12 inhibitory activity, hKLK12 (R&D Systems, Inc., 3095-SE) with a final concentration of 0.1 μg/mL and a substrate peptide Boc-Val-Pro-Arg-AMC (R&D Systems, Inc., ES011) with a final concentration of 100 μM were used.
(§1) The specificities for other proteases were evaluated using the degradation of a substrate peptide as an index. As in the method described in (3-1), 25 μL each of a protease and a sample diluted with an assay buffer were mixed (to a final concentration of sample of 1 μM), followed by a reaction at 37° C. for 20 minutes. Thereafter, 50 μL of a substrate diluted with an assay buffer was added thereto, and the fluorescence signal was measured using Enspire (PerkinElmer). An assay buffer (50 mM Tris, 150 mM NaCl, pH 8.0) was used for the evaluation of the protease activity, and a PROTEOSAVE® SS96F black plate (Sumitomo Bakelite Co., Ltd.) was used for the reaction and the measurement. The combinations of the protease and the substrate used for the evaluation of the specificity were as follows.

[4] = biological target: T1, human KLK5; assay: SPR, BIAcore T200; biotinylated KLK5 captured on chip, peptide as analyte; single cycle kinetics, 1:1 model
Experimental: In order to measure the binding affinity of the KLK5 inhibitory peptides, surface plasmon resonance analysis was conducted using BIAcore T 200 (GE healthcare). A complementary strand of DNA of a streptavidin conjugate was captured by hybridization on Sensor Chip CAP (GE healthcare) on which single-stranded DNA immobilized. Next, KLK5 biotinylated using EZ-Link NHS-PEG4-Biotin (Thermo Fisher Scientific) was captured at a flow rate of 10 μL/min to immobilize about 10 RU. Thereafter, the KLK5 inhibitory peptide, serially diluted 2-fold with HBS-EP (0.625 to 10 nM), was added thereto as an analyte at a flow rate of 30 μL/min. In the BIAcore T 200 Evaluation software (version 2.0), kon and koff were calculated by analysis using Single cycle kinetics in a simple one-to-one Langmuir binding model. The dissociation constant KD was calculated as a ratio of koff/kₒₙ. Further, multiple KLK5 inhibitory peptides were measured by regenerating Sensor Chip CAP using a Regeneration buffer attached to a Biotin CAPture Kit (GE healthcare) and repeatedly capturing biotinylated KLK5.

[5] = biological target: mouse KLK7 (mouse, UniProt Q91VE3 26-249); assay: cell-based or functional assay
[6] = biological target: T4, mouse KLK5 (mouse); assay: cell-based or functional assay
T4 chain: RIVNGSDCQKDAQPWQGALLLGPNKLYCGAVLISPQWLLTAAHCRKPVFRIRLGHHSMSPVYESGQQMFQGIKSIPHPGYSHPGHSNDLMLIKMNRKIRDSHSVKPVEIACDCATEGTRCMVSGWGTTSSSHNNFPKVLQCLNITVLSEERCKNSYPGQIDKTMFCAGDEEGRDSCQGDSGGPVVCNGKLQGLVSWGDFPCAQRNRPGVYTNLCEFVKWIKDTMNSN

[7] = biological target: T5, mouse KLK14 (mouse, UniProt Q8CGR5 24-250); assay: cell-based or functional assay
T5 sequence: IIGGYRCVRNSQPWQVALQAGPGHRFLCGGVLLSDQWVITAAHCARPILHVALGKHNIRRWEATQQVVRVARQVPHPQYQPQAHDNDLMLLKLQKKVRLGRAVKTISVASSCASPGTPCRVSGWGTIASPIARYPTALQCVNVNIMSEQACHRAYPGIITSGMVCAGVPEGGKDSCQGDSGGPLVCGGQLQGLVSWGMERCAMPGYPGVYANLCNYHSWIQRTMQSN

[8] = biological target: T6, KLK4 (human, UniProt Q9Y5K2); assay: fluorogenic peptide substrate cleavage, 1 µM inhibitor
T6 construct: commercial enzyme (R&D Systems, 1719-SE); 1 µg/mL in the assay; substrate Boc-Val-Pro-Arg-AMC 100 µM; also called Human KLK4; hKLK4
Experimental: FIG. 3F includes graphs to evaluate the cross-reactivity of each inhibitory peptide with proteases, using the degradation of a peptide substrate as an index. For evaluating the Human KLK1 inhibitory activity, hKLK1 (R&D Systems, Inc., 2337-SE) with a final concentration of 0.1 μg/mL and a substrate peptide Pro-Phe-Arg-MCA (PEPTIDE […], INC., 3096-v) with a final concentration of 100 μM were used. For evaluating the Human KLK2 inhibitory activity, hKLK2 (R&D Systems, Inc., 4104-SE) with a final concentration of 2 μg/mL and a substrate peptide Pro-Phe-Arg-MCA (PEPTIDE […], INC., 3096-v) with a final concentration of 100 μM were used. For evaluating the Human KLK4 inhibitory activity, hKLK4 (R&D Systems, Inc., 1719-SE) with a final concentration of 1 μg/mL and a substrate peptide Boc-Val-Pro-Arg-AMC (R&D Systems, Inc., ES011) with a final concentration of 100 μM were used.
as §1

[9] = biological target: T7, Plasmin (human, UniProt P00747); assay: as above
T7 construct: commercial enzyme (Sigma-Aldrich, P1867); 50 nM in the assay; substrate Boc-Val-Leu-Lys-MCA 100 µM; also called Human plasmin
Experimental: FIG. 3C includes graphs to evaluate the cross-reactivity of each inhibitory peptide with proteases, using the degradation of a peptide substrate as an index. For evaluating the Human plasmin inhibitory activity, plasmin (Sigma-Aldrich Co. LLC, P1867) with a final concentration of 50 nM and a substrate peptide Boc-Val-Leu-Lys-MCA (PEPTIDE […], INC., 3104-v) with a final concentration of 100 μM were used. For evaluating the Human thrombin inhibitory activity, thrombin (Sigma-Aldrich Co. LLC, T6884) with a final concentration of 1 nM and a substrate peptide Boc-Val-Pro-Arg-AMC (R&D Systems, Inc., ES011) with a final concentration of 100 μM were used. For evaluating the Human neutrophil elastase inhibitory activity, neutrophil elastase (Enzo Life Sciences, BML-SE284) with a final concentration of 0.00001 U/μL and a substrate peptide Suc (OMe)-Ala-Ala-Pro-Val-MCA (PEPTIDE […], INC., 3153-v) with a final concentration of 100 μM were used.
The specificities for other proteases were evaluated using the degradation of a substrate peptide as an index. […] Thereafter, 50 μL of a substrate diluted with an assay buffer was added thereto, and the fluorescence signal was measured using Enspire (PerkinElmer). […]

[10] = biological target: human KLK7 (human, UniProt P49862 30-253); assay: cell-based or functional assay
[11] = biological target: bChymotrypsin; assay: fluorogenic peptide substrate cleavage, 1 µM inhibitor
Experimental: FIG. 3A includes graphs to evaluate the cross-reactivity of each inhibitory peptide with proteases, using the degradation of a peptide substrate as an index. For evaluating the Bovine trypsin inhibitory activity, trypsin (Pierce, 20233) with a final concentration of 5 nM and a substrate peptide Boc-Val-Pro-Arg-AMC (R&D Systems, Inc., ES011) with a final concentration of 100 μM were used. For evaluating the Human trypsin inhibitory activity, trypsin (Sigma-Aldrich Co. LLC, T6424) with a final concentration of 1 nM and a substrate peptide Boc-Val-Pro-Arg-AMC (R&D Systems, Inc., ES011) with a final concentration of 100 μM were used. For evaluating the Bovine α-chymotrypsin inhibitory activity, chymotrypsin (Worthington Biochemical Corporation, LS001434) with a final concentration of 10 nM and a substrate peptide Suc-Leu-Leu-Val-Tyr-MCA (PEPTIDE […], INC., 3120-v) with a final concentration of 100 μM were used.
as §1

mouse KLK7, sequence (Q91VE3 26-249): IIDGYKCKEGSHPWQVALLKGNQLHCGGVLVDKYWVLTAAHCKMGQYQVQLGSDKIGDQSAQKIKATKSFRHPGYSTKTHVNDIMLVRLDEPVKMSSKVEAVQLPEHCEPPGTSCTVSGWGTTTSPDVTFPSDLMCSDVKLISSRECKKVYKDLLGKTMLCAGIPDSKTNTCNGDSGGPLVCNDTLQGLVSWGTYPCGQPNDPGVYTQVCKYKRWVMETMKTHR
T6 sequence (Q9Y5K2 31-254 limits assumed): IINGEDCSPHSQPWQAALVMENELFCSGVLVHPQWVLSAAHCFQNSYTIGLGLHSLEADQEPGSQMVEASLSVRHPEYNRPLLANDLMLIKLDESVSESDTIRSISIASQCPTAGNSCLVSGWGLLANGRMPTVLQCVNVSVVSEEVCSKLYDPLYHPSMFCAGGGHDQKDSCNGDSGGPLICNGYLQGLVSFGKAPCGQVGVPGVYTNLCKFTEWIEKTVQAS
T7 sequence (P00747 97-810 limits assumed): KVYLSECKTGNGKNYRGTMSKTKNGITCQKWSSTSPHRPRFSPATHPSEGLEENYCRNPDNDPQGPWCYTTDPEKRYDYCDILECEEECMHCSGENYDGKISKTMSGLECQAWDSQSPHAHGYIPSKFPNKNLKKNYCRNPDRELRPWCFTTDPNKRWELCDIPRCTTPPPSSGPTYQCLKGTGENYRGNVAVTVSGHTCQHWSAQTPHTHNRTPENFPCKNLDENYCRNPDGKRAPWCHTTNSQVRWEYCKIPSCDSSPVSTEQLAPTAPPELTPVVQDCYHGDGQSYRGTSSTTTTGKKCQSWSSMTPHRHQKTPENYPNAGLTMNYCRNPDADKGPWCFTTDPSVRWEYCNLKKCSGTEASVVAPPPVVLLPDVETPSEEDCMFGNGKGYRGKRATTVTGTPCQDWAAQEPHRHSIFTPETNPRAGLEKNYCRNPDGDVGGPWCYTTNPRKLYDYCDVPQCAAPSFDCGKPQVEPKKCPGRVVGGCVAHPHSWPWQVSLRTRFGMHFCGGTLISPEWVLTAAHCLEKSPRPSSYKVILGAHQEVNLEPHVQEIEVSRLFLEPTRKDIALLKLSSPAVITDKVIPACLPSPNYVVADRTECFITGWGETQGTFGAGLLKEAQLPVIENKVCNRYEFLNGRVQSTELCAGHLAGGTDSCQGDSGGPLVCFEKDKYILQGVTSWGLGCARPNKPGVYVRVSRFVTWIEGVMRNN
human KLK7, sequence (P49862 30-253): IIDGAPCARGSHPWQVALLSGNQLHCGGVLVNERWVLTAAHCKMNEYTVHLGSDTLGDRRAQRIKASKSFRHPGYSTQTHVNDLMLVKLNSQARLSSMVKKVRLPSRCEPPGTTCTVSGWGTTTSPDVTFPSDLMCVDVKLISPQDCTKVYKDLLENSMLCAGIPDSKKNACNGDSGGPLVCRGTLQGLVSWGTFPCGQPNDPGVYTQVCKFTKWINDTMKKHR

IC50(nM) for hKLK5 [1]: 7.5 nM | IC50(nM) for hKLK14 [2]: 499 nM | binding result [3]: binds | Kd [4]: 0.0025 nM | koff [4]: 2.9e-06 s⁻¹ | kon [4]: 1.2e+06 M⁻¹ s⁻¹ | IC50(nM) for mKLK7 [5]: > 1000 nM | IC50(nM) for mKLK5 [6]: 10 nM | IC50(nM) for mKLK14 [7]: > 1000 nM | binding result [8]: binds
B1: KLK5 inhibitory peptide K50062 (peptide)
chain: GPQFGLFSKYRTPNCQQYRELGCGRQYDPVCGSDMSTYANECTLCMKIREGGHNIKIIRNGPCGG
notes: SPINK2 mutant peptide made in E. coli

IC50(nM) for hKLK5 [1]: 6.4 nM | Kd [4]: 0.068 nM | koff [4]: 3.5e-05 s⁻¹ | kon [4]: 520000 M⁻¹ s⁻¹ | binding result [9]: binds | IC50(nM) for mKLK7 [5]: > 1000 nM | IC50(nM) for mKLK5 [6]: 54 nM | IC50(nM) for mKLK14 [7]: > 1000 nM | binding result [8]: binds
B2: KLK5 inhibitory peptide K51034 (peptide)
chain: GPQFGLFSKYRTPNCGRYTTGGCNKEYEPVCGSDMSTYANECTLCMKIREGGHNIKIIRNGPCGG
notes: as for B1

IC50(nM) for hKLK5 [1]: 12 nM | IC50(nM) for hKLK14 [2]: > 1000 nM | IC50(nM) for hKLK7 [10]: 24 nM | Kd [4]: 0.26 nM | koff [4]: 0.0015 s⁻¹ | kon [4]: 6e+06 M⁻¹ s⁻¹ | IC50(nM) for mKLK7 [5]: 27 nM | IC50(nM) for mKLK5 [6]: 149 nM | IC50(nM) for mKLK14 [7]: 437 nM | binding result [11]: binds
B3: KLK5/KLK7 inhibitory peptide K51057 (peptide)
chain: B2 chain with R17T, Y18M, T19Q, T20G, G21S, N24T, K25Y, E26H
notes: as for B1
